Key:
[1] = ELISA stability characterization of tPA after storage in vial, solution or RRP; assay type: physicochemical
Protocol: RRPs were initially kept at 20° C., and subsequently subjected to a fixed wall temperature of 65° C. for 3 hours. Samples were kept in 6 different storage conditions for 24 hours prior to assay preparation: (1) Standard Cathflo Activase lyophilized in glass vial at 20° C.; (2) Cathflo Activase reconstituted in Millipore filtered water and kept in glass vial at 20° C.; (3) lyophilized Cathflo Activase loaded into RRPs and kept at 20° C.; (4) Cathflo Activase lyophilized in glass vial at 65° C.; (5) Cathflo Activase reconstituted in Millipore filtered water and stored in glass vial at 65° C., and (6) Cathflo Activase loaded into RRP and kept at 65° C. After 24 hours each sample in lyophilized form, including those stored in the RRP, was reconstituted in 2 mL Millipore water, and apportioned for subsequent use in ELISA, UV-Vis and HPLC assays.
Stability experiments were performed to characterize and compare the RRP with standard vials at various storage conditions. ELISA assays were used to test for stability of samples (Human tPA Platinum ELISA Kit, eBioscience, Inc.) that underwent two temperature conditions, T=20, 65° C. HPLC assays were not sufficient in assaying stability for tPA as the low pH buffer required denatured tPA regardless of conformation or partial denaturation already induced by the storage condition.
The samples to be tested were injected into each ELISA well and left to incubate. After a wash step, a second antibody, horseradish peroxidase (HRP)-conjugated anti-tPA, was injected into each sample well. The HRP-conjugated anti-tPA bound onto the opposing side of the tPA molecule already bound onto the plate-fixed antibody. After a second wash step, a color inducing substrate (TMB substrate) was then injected into the wells, which bound onto the HRP to induce a measureable gradient representing the amount of tPA bound. In order to prevent oversaturation of the antibodies, the samples were diluted to 10 ng/mL to fall within the assay sensitivity range of 2 pg/mL-10 ng/mL. Optical signal intensity from assay plates were measured with spectrophotometer at wavelength 450 nm (PowerWave HT Microplate Spectrophotomer, BioTek Instruments, Inc.). Each sample was normalized against a calibration curve derived from a 5-parameter logistic fit of tPA standards ran concurrently with the samples.

[2] = cited from earlier work

With Tissue Plasminogen Activator [tPA] the “stability by ELISA” value ([1]; all samples (solid, liquid, and RRP) at 20° C., over 24 hours) was “stability preservation”, the “average activity retained (ELISA)” value ([1]; lyophilized in standard glass vial at 65° C., 24 hours) was 81.6% and the “total initial drug stability retained, average (ELISA)” value ([1]; lyophilized, loaded into RRP, kept at 65° C., 24 hours) was 86.3%. The “activity expressed, in average of the standard activity average (ELISA)” value ([1]; stored in reconstituted form within glass vials at 65° C., 24 hours) was 39.3% and the “stability time in solution (liquid form)” value [2] was “up to 8 hours”.

— patent US20150297458A1, “RAPID RECONSTITUTION PACKAGES FOR MIXING AND DELIVERY OF DRUGS” (Massachusetts Institute of Technology, priority 2012, published 2015)
